Earlier results, collected in article PMC5337993.

Biological target: Kv1.3 (Homo sapiens) (UniProt P22001)
UniProt P22001, sequence (P22001 whole entry): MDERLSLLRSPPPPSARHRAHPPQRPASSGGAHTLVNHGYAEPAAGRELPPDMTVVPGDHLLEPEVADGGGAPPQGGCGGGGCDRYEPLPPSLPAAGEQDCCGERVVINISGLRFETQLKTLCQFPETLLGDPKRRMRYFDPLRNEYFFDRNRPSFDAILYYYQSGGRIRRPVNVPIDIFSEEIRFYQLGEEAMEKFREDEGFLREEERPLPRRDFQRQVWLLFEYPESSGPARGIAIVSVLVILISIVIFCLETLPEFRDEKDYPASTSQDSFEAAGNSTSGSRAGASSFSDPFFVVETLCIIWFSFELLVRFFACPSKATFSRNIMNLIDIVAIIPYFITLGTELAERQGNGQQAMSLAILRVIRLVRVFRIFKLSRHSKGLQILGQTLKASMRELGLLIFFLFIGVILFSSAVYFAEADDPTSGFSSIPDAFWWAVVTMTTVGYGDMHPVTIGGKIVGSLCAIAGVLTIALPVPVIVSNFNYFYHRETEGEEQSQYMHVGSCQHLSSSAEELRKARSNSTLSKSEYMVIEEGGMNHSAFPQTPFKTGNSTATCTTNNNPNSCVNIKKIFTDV

## ShK (from UniProt P29187)
  Kd: 0.01 nM
